From patent US20250064988A1
Values belong to the substance of their own block, whether it stands above or below them.

How the values were obtained:
[1] = biological target: Glycoprotein IIb (GPIIb, also known as antigen CD41) (UniProt P08514); test: flow cytometry, percent of FDPDs stained; batch 6
[2] = biological target: Glycoprotein IIb (GPIIb, also known as antigen CD41) (UniProt P08514); test: flow cytometry, percent of FDPDs stained; mean of 7 batches
[3] = biological target: Glycoprotein IIb (GPIIb, also known as antigen CD41) (UniProt P08514); test: flow cytometry, percent of FDPDs stained; batch 1
[4] = biological target: Glycoprotein IIb (GPIIb, also known as antigen CD41) (UniProt P08514); test: flow cytometry, percent of FDPDs stained; batch 2
[5] = biological target: Glycoprotein IIb (GPIIb, also known as antigen CD41) (UniProt P08514); test: flow cytometry, percent of FDPDs stained; batch 7
[6] = biological target: Glycoprotein IIb (GPIIb, also known as antigen CD41) (UniProt P08514); test: flow cytometry, percent of FDPDs stained; batch 4
[7] = biological target: Glycoprotein IIb (GPIIb, also known as antigen CD41) (UniProt P08514); test: flow cytometry, percent of FDPDs stained; batch 3
[8] = biological target: Glycoprotein IIb (GPIIb, also known as antigen CD41) (UniProt P08514); test: flow cytometry, percent of FDPDs stained; batch 5
[9] = biological target: P-selectin (also called CD62P) (human) (UniProt P16109); test: flow cytometry, percent of CD41-positive FDPDs stained; batch 1
UniProt P16109, sequence (P16109 42-830): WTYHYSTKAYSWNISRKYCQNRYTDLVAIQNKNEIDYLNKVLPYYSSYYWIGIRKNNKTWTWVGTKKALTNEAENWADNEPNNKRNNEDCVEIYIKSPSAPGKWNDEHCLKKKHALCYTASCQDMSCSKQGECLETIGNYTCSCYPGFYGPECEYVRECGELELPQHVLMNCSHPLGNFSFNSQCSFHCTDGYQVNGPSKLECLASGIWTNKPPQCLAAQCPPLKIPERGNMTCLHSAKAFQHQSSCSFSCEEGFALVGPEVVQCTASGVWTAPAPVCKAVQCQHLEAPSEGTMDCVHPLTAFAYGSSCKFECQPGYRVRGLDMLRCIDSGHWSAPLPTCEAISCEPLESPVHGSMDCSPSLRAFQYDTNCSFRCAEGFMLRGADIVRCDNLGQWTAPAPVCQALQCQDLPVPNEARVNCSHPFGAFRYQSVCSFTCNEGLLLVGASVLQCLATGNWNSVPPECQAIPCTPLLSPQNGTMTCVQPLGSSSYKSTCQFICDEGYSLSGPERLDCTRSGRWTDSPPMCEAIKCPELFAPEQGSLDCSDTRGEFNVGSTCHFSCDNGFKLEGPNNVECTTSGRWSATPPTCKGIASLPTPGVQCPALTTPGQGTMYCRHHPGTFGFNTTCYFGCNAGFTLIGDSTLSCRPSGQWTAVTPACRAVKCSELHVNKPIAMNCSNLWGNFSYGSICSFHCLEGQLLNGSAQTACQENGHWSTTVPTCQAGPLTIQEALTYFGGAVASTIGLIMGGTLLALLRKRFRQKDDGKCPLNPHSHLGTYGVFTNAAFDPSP

[10] = biological target: P-selectin (also called CD62P) (human) (UniProt P16109); test: flow cytometry, percent of CD41-positive FDPDs stained; batch 7
[11] = biological target: P-selectin (also called CD62P) (human) (UniProt P16109); test: flow cytometry, percent of CD41-positive FDPDs stained; mean of 7 batches
[12] = biological target: P-selectin (also called CD62P) (human) (UniProt P16109); test: flow cytometry, percent of CD41-positive FDPDs stained; batch 4
[13] = biological target: P-selectin (also called CD62P) (human) (UniProt P16109); test: flow cytometry, percent of CD41-positive FDPDs stained; batch 2
[14] = biological target: P-selectin (also called CD62P) (human) (UniProt P16109); test: flow cytometry, percent of CD41-positive FDPDs stained; batch 5
[15] = biological target: P-selectin (also called CD62P) (human) (UniProt P16109); test: flow cytometry, percent of CD41-positive FDPDs stained; batch 6
[16] = biological target: P-selectin (also called CD62P) (human) (UniProt P16109); test: flow cytometry, percent of CD41-positive FDPDs stained; batch 3
[17] = biological target: P-selectin (also called CD62P) (human) (UniProt P16109); test: flow cytometry, human apheresis platelets without TRAP-6
[18] = biological target: P-selectin (also called CD62P) (human) (UniProt P16109); test: flow cytometry, human apheresis platelets after 20 µM TRAP-6
Thrombospondin (TSP1) [19] = biological target: Thrombospondin (TSP1) (UniProt P07996); test: flow cytometry, resting fresh washed platelets
UniProt P07996, sequence (P07996 19-1170 limits assumed): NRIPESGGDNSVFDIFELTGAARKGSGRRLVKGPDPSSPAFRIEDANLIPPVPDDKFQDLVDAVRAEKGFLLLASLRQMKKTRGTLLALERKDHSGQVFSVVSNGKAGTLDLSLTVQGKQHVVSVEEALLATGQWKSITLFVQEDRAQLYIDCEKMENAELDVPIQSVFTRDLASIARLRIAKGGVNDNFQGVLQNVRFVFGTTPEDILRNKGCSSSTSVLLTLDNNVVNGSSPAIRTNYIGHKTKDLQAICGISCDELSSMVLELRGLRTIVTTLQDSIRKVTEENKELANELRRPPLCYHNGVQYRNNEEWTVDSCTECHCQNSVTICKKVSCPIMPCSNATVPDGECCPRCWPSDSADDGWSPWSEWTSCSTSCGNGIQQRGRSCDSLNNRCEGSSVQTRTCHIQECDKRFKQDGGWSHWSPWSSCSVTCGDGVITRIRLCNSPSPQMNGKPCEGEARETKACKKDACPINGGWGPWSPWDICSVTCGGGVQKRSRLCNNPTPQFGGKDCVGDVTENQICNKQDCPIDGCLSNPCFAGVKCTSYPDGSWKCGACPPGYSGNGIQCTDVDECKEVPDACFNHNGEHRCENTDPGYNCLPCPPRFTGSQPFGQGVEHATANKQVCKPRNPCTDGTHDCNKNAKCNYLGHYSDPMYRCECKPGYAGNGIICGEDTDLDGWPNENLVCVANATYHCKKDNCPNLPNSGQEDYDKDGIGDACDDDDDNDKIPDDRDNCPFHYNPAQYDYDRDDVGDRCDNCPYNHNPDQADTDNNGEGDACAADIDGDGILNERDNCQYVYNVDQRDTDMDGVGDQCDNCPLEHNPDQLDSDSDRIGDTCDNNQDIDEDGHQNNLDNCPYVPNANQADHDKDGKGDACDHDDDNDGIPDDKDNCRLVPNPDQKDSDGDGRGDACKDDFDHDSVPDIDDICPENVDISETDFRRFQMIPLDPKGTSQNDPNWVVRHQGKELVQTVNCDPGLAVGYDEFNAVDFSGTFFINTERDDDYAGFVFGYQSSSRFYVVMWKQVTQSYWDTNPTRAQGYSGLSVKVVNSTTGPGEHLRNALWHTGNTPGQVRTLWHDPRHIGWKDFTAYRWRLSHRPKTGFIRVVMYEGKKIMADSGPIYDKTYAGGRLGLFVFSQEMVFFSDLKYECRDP

Thrombospondin (TSP1) [20] = biological target: Thrombospondin (TSP1) (UniProt P07996); test: flow cytometry, rehydrated baked FDPDs, average of lots
Thrombospondin (TSP1) [21] = biological target: Thrombospondin (TSP1) (UniProt P07996); test: flow cytometry, fresh washed platelets activated with collagen and thrombin
[22] = biological target: Von Willebrand factor (vWF) (UniProt P04275); test: flow cytometry, resting fresh washed platelets
UniProt P04275, sequence (P04275 764-2813 limits assumed): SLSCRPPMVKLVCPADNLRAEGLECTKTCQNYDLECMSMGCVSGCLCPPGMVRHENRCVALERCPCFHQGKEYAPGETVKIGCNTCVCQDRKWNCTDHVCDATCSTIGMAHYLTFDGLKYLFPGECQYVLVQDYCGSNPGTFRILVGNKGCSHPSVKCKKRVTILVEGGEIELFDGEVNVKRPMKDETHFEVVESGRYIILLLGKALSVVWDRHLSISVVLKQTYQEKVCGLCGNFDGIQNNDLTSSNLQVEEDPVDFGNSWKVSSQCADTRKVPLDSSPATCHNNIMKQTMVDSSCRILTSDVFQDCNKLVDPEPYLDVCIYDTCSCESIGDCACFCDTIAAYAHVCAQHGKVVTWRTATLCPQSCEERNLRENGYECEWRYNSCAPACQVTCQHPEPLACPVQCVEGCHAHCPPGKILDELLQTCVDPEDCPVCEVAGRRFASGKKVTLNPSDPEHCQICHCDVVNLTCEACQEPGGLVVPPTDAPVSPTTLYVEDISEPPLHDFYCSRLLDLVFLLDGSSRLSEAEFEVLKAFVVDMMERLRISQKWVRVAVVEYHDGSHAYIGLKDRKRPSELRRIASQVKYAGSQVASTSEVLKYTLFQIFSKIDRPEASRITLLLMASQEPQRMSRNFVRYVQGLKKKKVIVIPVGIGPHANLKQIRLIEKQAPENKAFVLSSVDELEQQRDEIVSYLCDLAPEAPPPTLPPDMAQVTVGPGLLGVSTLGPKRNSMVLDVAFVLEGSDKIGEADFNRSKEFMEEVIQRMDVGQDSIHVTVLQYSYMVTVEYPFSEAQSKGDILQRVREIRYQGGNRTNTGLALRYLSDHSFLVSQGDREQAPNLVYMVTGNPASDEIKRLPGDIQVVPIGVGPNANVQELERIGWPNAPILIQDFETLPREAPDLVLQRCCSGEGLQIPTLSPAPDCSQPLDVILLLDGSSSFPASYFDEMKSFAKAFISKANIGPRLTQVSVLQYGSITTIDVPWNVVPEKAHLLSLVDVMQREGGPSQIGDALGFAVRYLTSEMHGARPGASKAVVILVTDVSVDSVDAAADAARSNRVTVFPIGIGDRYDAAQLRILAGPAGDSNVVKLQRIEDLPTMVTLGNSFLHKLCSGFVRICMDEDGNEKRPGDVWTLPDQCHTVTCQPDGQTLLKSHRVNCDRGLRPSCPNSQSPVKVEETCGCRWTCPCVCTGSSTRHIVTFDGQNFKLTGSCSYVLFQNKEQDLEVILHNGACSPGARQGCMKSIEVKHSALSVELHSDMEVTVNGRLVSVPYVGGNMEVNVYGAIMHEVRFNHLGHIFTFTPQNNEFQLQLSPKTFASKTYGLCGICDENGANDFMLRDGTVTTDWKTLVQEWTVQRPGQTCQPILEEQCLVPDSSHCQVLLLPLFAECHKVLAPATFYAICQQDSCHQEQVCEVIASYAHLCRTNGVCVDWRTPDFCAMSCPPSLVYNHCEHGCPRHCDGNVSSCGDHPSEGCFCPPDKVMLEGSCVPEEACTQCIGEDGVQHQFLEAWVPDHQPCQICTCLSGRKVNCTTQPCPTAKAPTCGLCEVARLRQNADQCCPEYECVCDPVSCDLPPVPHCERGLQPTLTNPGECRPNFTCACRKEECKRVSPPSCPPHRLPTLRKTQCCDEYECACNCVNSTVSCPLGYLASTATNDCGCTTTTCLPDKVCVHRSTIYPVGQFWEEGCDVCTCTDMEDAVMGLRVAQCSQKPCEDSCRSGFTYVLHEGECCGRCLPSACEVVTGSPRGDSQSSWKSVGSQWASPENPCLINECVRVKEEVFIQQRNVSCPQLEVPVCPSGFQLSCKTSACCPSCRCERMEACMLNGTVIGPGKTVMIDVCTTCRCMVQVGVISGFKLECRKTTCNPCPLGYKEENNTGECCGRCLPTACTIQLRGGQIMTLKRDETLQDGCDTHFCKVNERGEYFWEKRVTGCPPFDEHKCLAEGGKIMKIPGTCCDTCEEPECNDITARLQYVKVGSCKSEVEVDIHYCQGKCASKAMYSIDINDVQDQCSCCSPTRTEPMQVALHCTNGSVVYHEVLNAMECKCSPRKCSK

[23] = biological target: Von Willebrand factor (vWF) (UniProt P04275); test: flow cytometry, rehydrated baked FDPDs, average of lots
[24] = biological target: Von Willebrand factor (vWF) (UniProt P04275); test: flow cytometry, fresh washed platelets activated with collagen and thrombin

UniProt P08514, sequence (P08514 32-1039 limits assumed): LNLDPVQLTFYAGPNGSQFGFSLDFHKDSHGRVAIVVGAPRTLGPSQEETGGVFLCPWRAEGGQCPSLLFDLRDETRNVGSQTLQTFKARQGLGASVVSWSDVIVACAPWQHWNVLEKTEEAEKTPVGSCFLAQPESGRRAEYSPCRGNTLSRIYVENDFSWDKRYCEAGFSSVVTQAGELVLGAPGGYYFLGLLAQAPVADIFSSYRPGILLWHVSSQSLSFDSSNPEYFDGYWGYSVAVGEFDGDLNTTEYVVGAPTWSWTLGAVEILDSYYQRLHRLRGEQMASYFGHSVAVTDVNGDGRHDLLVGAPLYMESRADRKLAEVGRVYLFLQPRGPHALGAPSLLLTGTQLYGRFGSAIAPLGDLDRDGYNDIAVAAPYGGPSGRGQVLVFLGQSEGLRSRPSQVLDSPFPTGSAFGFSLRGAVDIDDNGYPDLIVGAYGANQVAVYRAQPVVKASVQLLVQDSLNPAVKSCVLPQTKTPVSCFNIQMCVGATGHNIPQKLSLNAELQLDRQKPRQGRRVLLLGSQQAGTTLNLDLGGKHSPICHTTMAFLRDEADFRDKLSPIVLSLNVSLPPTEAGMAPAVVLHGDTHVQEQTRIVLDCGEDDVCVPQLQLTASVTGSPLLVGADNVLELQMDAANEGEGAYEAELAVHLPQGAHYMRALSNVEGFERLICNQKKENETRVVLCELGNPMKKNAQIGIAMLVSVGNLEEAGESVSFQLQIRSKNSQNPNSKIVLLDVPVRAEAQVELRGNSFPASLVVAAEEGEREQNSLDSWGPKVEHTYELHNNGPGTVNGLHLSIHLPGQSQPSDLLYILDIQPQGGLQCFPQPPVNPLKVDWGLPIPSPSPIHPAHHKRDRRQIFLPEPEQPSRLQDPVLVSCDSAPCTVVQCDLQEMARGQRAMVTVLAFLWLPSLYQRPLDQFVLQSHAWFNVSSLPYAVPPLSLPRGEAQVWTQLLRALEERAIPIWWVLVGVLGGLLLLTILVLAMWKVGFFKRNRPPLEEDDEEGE

- CD41 Positivity (%) [1]: 84%
- CD41 Positivity (%) [2]: 81.3%
- CD41 Positivity (%) [3]: 81.5%
- CD41 Positivity (%) [4]: 79.4%
- CD41 Positivity (%) [5]: 78.5%
- CD41 Positivity (%) [6]: 78.2%
- CD41 Positivity (%) [7]: 85.7%
- CD41 Positivity (%) [8]: 81.5%
Substance: anti-CD41 antibody (Beckman Coulter part #IM1416U)

- CD62 Positivity (%) [9]: 94.2%
- CD62 Positivity (%) [10]: 90.7%
- CD62 Positivity (%) [11]: 91.4%
- CD62 Positivity (%) [12]: 92.4%
- CD62 Positivity (%) [13]: 93.1%
- CD62 Positivity (%) [14]: 92.5%
- CD62 Positivity (%) [15]: 87.3%
- CD62 Positivity (%) [16]: 89.8%
Substance: anti-CD62P antibody (BD Biosciences Cat. No. 550888)

- MFI [17]: 2350 MFI
- MFI [18]: 127000 MFI
Substance: anti-CD62P-PE antibody (BD Pharmingen Cat #550561 Lot #6322976)

- MFI (Thrombospondin (TSP1) [19]): 1220 MFI
- MFI (Thrombospondin (TSP1) [20]): 91400 MFI
- MFI (Thrombospondin (TSP1) [21]): 3310 MFI
Substance: anti-Thrombospondin-1 (TSP-1) antibody (Santa Cruz Biotech Cat #sc-59887 AF594)

- MFI [22]: 4770 MFI
- MFI [23]: 14000 MFI
- MFI [24]: 19700 MFI
Substance: anti-Von Willebrand Factor antibody (Novus Biologicals Cat #NBP2-54379PE)
